Measured values taken from the DeepSol protein solubility set.

Assay: soluble on expression in E. coli; label from the status in PepcDB or PDB records

| Sequence | soluble on expression in E. coli |
| --- | --- |
| MHLKNNQTLANGATVTIYPTTTEPTNYVVYLHGGGMIYGTKSDLPEELKELFTSNGYTVLALDYLLAPNTKIDHILRTLTETFQLLNEEIIQNQSFGLCGRSAGGYLMLQLTKQLQTLNLTPQFLVNFYGYTDLEFIKEPRKLLKQAISAKEIAAIDQTKPVWDDPFLSRYLLYHYSIQQALLPHFYGLPENGDWSAYALSDETLKTFPPCFSTASSSDEEVPFRYSKKIGRTIPESTFKAVYYLEHDFLKQTKDPSVITLFEQLDSWLKER | soluble |
| MHMSFDGMFTYGMTHELNEKIMGGRITKIHQPYKHDVIFHIRAKGKNQKLLLSAHPSYSRVHITAQAYENPSEPPMFCMLLRKHIEGGFIEKIEQAGLDRIMIFHIKSRNEIGDETVRKLYVEIMGRHSNIILTDAAENVIIDGLKHLSPSMNSYRTVLPGQDYKLPPAQDKISPLEASEDDILRHLSFQEGRLDKQIVDHFSGVSPLFAKEAVHRAGLANKVTLPKALLALFAEVKEHRFIPNITTVNGKEYFYLLELTHLKGEARRFDSLSELLDRFYFGKAERDRVKQQAQDLERFVVNERKKNANKIKKLEKTLEYSENAKEFQLYGELLTANLYMLKKGDKQAEVINYYDEESPTITIPLNPNKTPSENAQAYFTKYQKAKNSVAVVEEQIRLAQEEIEYFDQLIQQLSSASPRDISEIREELVEGKYLRPKQQKGQKKQKP | soluble |
| MHNVVFVLGPPGSGKGTICAKIQENLNYVHLSAGDLLRAERQREGSEFGALIESHIKNGSIVPVEITCSLLENAMKACGDAKGFLVDGFPRNEDNLQGWNKQMDGKALVQFVLFLSCPVSICIERCLNRGQGRTDDNEESLKKRVETYNQQTFPIIEHFEKSGLVREVKSERPVDVVYADVEKVFDAANKK | not soluble |
| MHSAKNEKCNACGGYRFSVNDGFKYCDRCGALFENFEELEEEEGGLQQTVGQGKVKVRKNDDQKRVRNNAAPVNLPKAQVMREALEKRSDFLQQQAIKGEELELPHDATPDYLYRLALRLFSFTQILAKSGHILVHELNFESRVQENILATFQKYLAHCQVAFCHSEQCGNDEHLRFVAVMENLRYEQEEREEKQRKRMAKRGKGVNALSKSAAAWTLLTQGNITEHLDIASDEDGDQDAQGGQQLDDLTLETTQNPDESIRVNDTTMGFVRKVTTALSKEALRRASQLILNLEMLVAILHSALMSSGYQTILTSDVVRWIREDRFRISRRSIRLIRQSQPERMKQGEVVKPTIVDYAEPFLRFPLYEIMRTCTIFHQSLKLASSMAPQSFESMSARLVDNLNLPSDILSRMLILESIIPCDVSPQLLKQVDVDMGYNCGQLAAMSPNVYYSGFLTSFGRKERGTQDADFCDEVLLSPDAKLIAYLLLTLRLTFQLDNAQCALQDDQYFDVDSWIHQLEMRIKCWQGHNMSLVMRSSSHVPEMVVDPPFGTNYLFHQEKGAPQVSCRRRQAGFQKCIPTEMSFNSTSTLPTVFDVRHMGLLTERCQMEALISPVKFQRTVLGNEIERDPLTFENVDRQSKNTFFKHFSAFKTTESCDTFEEYFPCAKNYLLFKRPDWIQNCTARQTHFNPVTGPIRFYLSNQSCDDLLGTAATSFSRRFQFLLDALSLIIGEDKKAVYAAFVMLEMHLTSSERIQSIRDDLLTSSPITLKCQKFRNSTHHIPRKYGVISEVPIDRIENLRYFRLSRQFFEHEEMPTTINMELIDYRNQEIRDSVTETEVQRAQNRIMKLCYEFEQFFGILAVKFW | soluble |
| MHSVARENLQAYLHSYKLSSNEPGIKLMHNSQRDDQHRKDVEHFAALRALQHSKRKHVAFAVQAMRDYDGSLDEKSPLKDHTISFNTNDFIHIHTKFNSDWWIGRIVRSHSEFGFVPTARRLANYMVSDEDPPVKHNTSDHQDRSIWEPKCPYKVVPSSRPIVLLGPTLQHSRLTQLLHLALREEILKHFGKNMKYVKSDIGSGQQSGDRKGARWLRGLRDYDRGQDENQEVELIMRMTSKLHLLLVDSPHIHTPDDVQHLPLSPIFFLIRVSDNKILAKLLRNTGTTRMAAEIEVANVLKTMNDDRVGGHDDEQLIARGFEMVIEENGLREATRRIISYLEKYIHALHYHHKDDEI | not soluble |
| MHTIDVIDSHTAGEPTRVVLAGFPDLGDGDLAQCRERFRSDFDHWRSAIACEPRGSDTMVGALLLPPRDPSACTGVIFFNNVGYLGMCGHGTIGVVRTLAELGRIAPGQHRIETPVGTVGVALADDGTVSIDNVESYRHAAGVEVDVPGHGRVRGDVAWGGNWFFITEQAPCALGLAQQRELTAYTEAIRLALEAAGITGEAGGEIDHIEISGVAPDGSGAARNFVLCPGLAYDRSPCGTGTSAKLACLAADGKLAEGERWLQQGILGSAFEGSYRHSGRGIAPRISGHAFITARSQLLIDPADPFAWGIVALEHHHHHH | not soluble |
